Measurements published in PMC6611741 (2019).

Target: Bovine serum albumin (Bos taurus (Bovine), UniProt P02769)
Test: EGOTFT (SiMoT), BSA-functionalized gate

Sequence of Bovine serum albumin (P02769 25-607): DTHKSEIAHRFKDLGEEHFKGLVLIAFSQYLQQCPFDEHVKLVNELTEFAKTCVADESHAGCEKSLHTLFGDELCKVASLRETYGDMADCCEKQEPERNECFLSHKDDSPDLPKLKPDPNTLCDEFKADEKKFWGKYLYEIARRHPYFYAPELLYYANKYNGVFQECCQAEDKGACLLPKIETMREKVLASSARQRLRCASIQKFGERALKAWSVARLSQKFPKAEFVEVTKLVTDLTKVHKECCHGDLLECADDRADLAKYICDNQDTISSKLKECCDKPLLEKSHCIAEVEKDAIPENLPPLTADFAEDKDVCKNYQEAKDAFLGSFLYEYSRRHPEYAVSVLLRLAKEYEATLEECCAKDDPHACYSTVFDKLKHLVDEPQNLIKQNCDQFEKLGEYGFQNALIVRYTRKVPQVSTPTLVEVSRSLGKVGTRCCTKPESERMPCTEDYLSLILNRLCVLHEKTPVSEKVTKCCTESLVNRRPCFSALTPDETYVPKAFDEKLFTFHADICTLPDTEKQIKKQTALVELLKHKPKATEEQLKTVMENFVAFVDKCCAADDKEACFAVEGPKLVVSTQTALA

B1: Human C-reactive protein (protein)
chain: QTDMSRKAFVFPKESDTSYVSLKAPLTKPLKAFTVCLHFYTELSSTRGYSIFSYATKRQDNEILIFWSKDIGYSFTVGGSEILFEVPEVTVAPVHICTSWESASGIVEFWVDGKPRVRKSLKKGYTVGAEASIILGQEQDSFGGNFEGSQSLVGDIGNVNMWDFVLSPDEINTIYLGGPFSPNVLNWRALKYEVQGEVFTKPQLWP
B1: no binding.
